Experimental data reported in US10758526B2, “Combination therapies using agents that target tumor-associated stroma or tumor cells and other pathways” (BIOMED VALLEY DISCOVERIES, INC., priority 2014, dated 2020).
Positions count from the first letter of the chain named.

What was measured:
[1] = Pharmacokinetics of TEM8 antibodies in mouse, multiple dose; type: in vivo
From the text: (§1) Tables 8 and 9 show pharmacokinetic properties of TEM8 antibodies according to the present invention in mouse for single dose (Table 8) and multiple dose (Table 9) treatments.

[2] = test system: DLD-1 colorectal adenocarcinoma xenograft; test: Efficacy of M830 alone and in combination in the DLD-1 colorectal adenocarcinoma xenograft model; type: in vivo, mice; conditions: for % Tumor Reduction vs. Vehicle at Day 21 / % Tumor Reduction vs. combination partner at Day (#): DLD1 Colon; for % Tumor Reduction vs. Vehicle at Day 21: 3 times per week; for % Tumor Reduction vs. combination partner at Day (#): Day 21; for combination compared with any agent alone / efficacy against DLD-1 cancer cells in the xenograft model: first study
Experimental: Tumor weights were calculated following surgical removal. […] Irinotecan was given once per week at 60 mg/kg i.v. and bevacizumab was dosed at 5 mg/kg i.p., three times per week.
In a second study, treatment was initiated with a large tumor volume of approximately 170 mm^3. M830 alone or in combinations with bevacizumab, irinotecan, or both, was given as a loading dose of 20 mg/kg followed by 5 mg/kg three times per week. The doses of bevacizumab and irinotecan were the same as in the first study. An additional group received a combination of bevacizumab and irinotecan without the M830 antibody.

[3] = test system: MC38 colon carcinoma liver metastasis; test: Efficacy of M830 in MC38 colon carcinoma liver metastasis model; type: in vivo, C57BL/6 mice
From the text: C57BL/6 mice were challenged with MC38 colon carcinoma liver metastasis by intrasplenic injections of cultured cells.

[4] = test system: HCT116 colorectal carcinoma xenograft; test: Efficacy of TEM8 antibodies in the HCT116 colorectal carcinoma xenograft model; type: in vivo, mice; conditions: HCT116 Colon; M830 alone; IP, 3 times per week; treatment initiated at 60-80 mm^3
Experimental: Tumor cells were cultured in RPMI-1640 medium supplemented with 10% fetal bovine serum, 2 mM glutamine, 100 units/mL penicillin G sodium, 100 μg/mL streptomycin sulfate, and 25 μg/mL gentamicin. The tumor cells were grown in tissue culture flasks in a humidified incubator at 37° C., in an atmosphere of 5% CO2 and 95% air.
2.5×10^6 to 5×10^6 HCT116 tumor cells were injected subcutaneously into the flank of mice. Tumor weights were calculated following surgical removal. Treatment was initiated when tumor volume reached 60-80 mm^3. Dosing volume was 10 mL/kg (0.2 mL/20 g mouse).
TEM8 Ab (hIgG1) doses were 5 and 15 mg/kg, three times per week, for 3 weeks. Bevacizumab was dosed at 5 mg/kg, twice per week, for 3 weeks. FIG. 1B and FIG. 1D show mean tumor growth and percent body weight change for each group, respectively, over the time course of the study.

[5] = Pharmacokinetics of TEM8 antibodies in mouse, single dose; type: in vivo
From the text: as §1

UACC melanoma cells = test: TEM8 antibody efficacy in UACC melanoma model; type: in vivo, mice
Experimental: UACC melanoma cells were cultured and injected subcutaneously into mice. Treatment was initiated with a tumor volume of 50 mm^3, and treatment groups consisted of one of four TEM8 antibodies (M825, M830, M863, and M822), each dosed at 15 mg/kg, 3 times per week for 3-4 weeks.

hTEM8-AP = molecular target: T1, hTEM8-AP (Homo sapiens, UniProt Q9H6X2); test: Biocore affinity measurement of anti-TEM8 Fabs, hTEM8-AP; type: binding
T1 sequence (Q9H6X2 33-321 limits assumed): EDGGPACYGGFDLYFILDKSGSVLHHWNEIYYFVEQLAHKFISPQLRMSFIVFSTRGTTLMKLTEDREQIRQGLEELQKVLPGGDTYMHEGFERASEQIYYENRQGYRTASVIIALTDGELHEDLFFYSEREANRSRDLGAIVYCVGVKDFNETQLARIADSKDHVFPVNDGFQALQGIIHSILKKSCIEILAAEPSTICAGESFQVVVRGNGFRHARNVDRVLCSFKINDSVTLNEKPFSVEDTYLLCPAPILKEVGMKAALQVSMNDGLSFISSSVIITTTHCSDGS

mTEM8-Fc = molecular target: T2, mTEM8-Fc (Mus musculus, UniProt Q9CZ52); test: Biocore affinity measurement of anti-TEM8 Fabs, mTEM8-Fc; type: binding
T2 construct: Fc
T2 sequence (Q9CZ52 31-319 limits assumed): T1 sequence (Q9H6X2 33-321 limits assumed) with K40R, R104S, S241A

[6] = test system: H460 non-small cell lung carcinoma xenograft; test: Efficacy of M830 in the H460 non-small cell lung carcinoma xenograft model; type: in vivo, athymic nude mice; conditions: for % Tumor Reduction vs. Vehicle at Day 21: 3 times per week; for % Tumor Reduction vs. combination partner at Day (#): Day 32
Experimental: Animals were monitored for regression responses.
The statistical tests were not adjusted for multiple comparisons.
Cultured H460 cells were harvested during exponential growth and resuspended in phosphate buffered saline at a concentration of 1×10^8 cells/mL. 1.0×10^7 tumor cells were injected subcutaneously into the flank of athymic nude mice. Animals were euthanized when tumors reached the pre-determined volume endpoint of 2000 mm^3 or on the final day (Day 88), whichever came first.

[7] = Group 7: M830 in combination with paclitaxel, n=10
[8] = H460 Lung, combination partner Paclitaxel
[9] = M830 15 mg/kg IP in combination with bevacizumab 5 mg/kg IP
[10] = M830 in combination with bevacizumab, n=10
[11] = combination of M830 and paclitaxel

B1: M830: TEM8 monoclonal antibody (hIgG1), VH SEQ ID NO:5 and VL SEQ ID NO:6 (antibody, V domains shown)
VH: EVQLVESGGGVVQPGRSVRLSCAASGFTFSTYTMHWVRQAPGKGLEWVAIISNDGSNKYYADPVRGRFTISRDNSKNTLYLQMNSLRAEDTAVYYCVRGSSWYRGNWFDPWGQGTLVTVSS
VL: DIQMTQSPSSLSASVGDRVTIACRASQTISRYLNWYQQKPGKAPKLLIYAASSLQSGVSSRFSGSGSGTEFTLTISSLQPEDFATYFCQQTYSPPITFGQGTRLEIKR
modifications: TEM830 mAb VH; TEM830 mAb VL
- AUCI ([1]; 5 mg/kg): 4316.79 µg·h/mL
- AUCT ([1]; 5 mg/kg): 4315.918 µg·h/mL
- CLF ([1]; 5 mg/kg): 1.16 mL/h/kg
- CMAX ([1]; 5 mg/kg): 86400 ng/mL
- HALF ([1]; 5 mg/kg): 22.88 h
- KEL ([1]; 5 mg/kg): 0.0303 h⁻¹
- TMAX ([1]; 5 mg/kg): 3 h
- VZF ([1]; 5 mg/kg): 38.24 mL/kg
- AUCI ([1]; 15 mg/kg): 23053.875 µg·h/mL
- AUCT ([1]; 15 mg/kg): 23052.853 µg·h/mL
- CLF ([1]; 15 mg/kg): 0.65 mL/h/kg
- CMAX ([1]; 15 mg/kg): 330000 ng/mL
- HALF ([1]; 15 mg/kg): 18.70 h
- KEL ([1]; 15 mg/kg): 0.0371 h⁻¹
- TMAX ([1]; 15 mg/kg): 3 h
- VZF ([1]; 15 mg/kg): 17.55 mL/kg
- % Tumor Reduction vs. Vehicle at Day 21 ([2]; M830 alone, IP): 68%
- % Tumor Reduction vs. combination partner at Day (#) ([2]; combination partner Bevacizumab): 48% (21)
- % Tumor Reduction vs. Vehicle at Day 21 ([2]; combination partner Bevacizumab, M830 IP): 86%
- % Tumor Reduction vs. combination partner at Day (#) ([2]; combination partner Irinotecan): 53% (21)
- % Tumor Reduction vs. Vehicle at Day 21 ([2]; combination partner Irinotecan, M830 IP, treatment initiated at about 50 mm^3): 86%
- combination compared with any agent alone ([2]; combination M830/bevacizumab): more effective than any agent alone
- efficacy against DLD-1 cancer cells in the xenograft model ([2]; combination M830/bevacizumab): effective
- combination compared with any agent alone ([2]; combination M830/irinotecan): more effective than any agent alone
- efficacy against DLD-1 cancer cells in the xenograft model ([2]; combination M830/irinotecan): effective
- triple combination compared with M830/bevacizumab combination ([2]; second study, M830 with bevacizumab and irinotecan): did not outperform the M830/bevacizumab combination therapy
- survival of mice ([3]; P=0.0001): significantly improved the survival
- median survival rate ([3]; versus 11 days for vehicle treated mice): 17 days
- % Tumor Reduction vs. Vehicle at Day 21 [4]: 39.5%
- AUCI ([5]; 5 mg/kg): 2242.485 µg·h/mL
- AUCT ([5]; 5 mg/kg): 2242.286 µg·h/mL
- CLF ([5]; 5 mg/kg): 2.23 mL/h/kg
- CMAX ([5]; 5 mg/kg): 67500 ng/mL
- HALF ([5]; 5 mg/kg): 8.54 h
- KEL ([5]; 5 mg/kg): 0.0811 h⁻¹
- TMAX ([5]; 5 mg/kg): 3 h
- VZF ([5]; 5 mg/kg): 27.48 mL/kg
- AUCI ([5]; 15 mg/kg): 10692.742 µg·h/mL
- AUCT ([5]; 15 mg/kg): 10692.598 µg·h/mL
- CLF ([5]; 15 mg/kg): 1.40 mL/h/kg
- CMAX ([5]; 15 mg/kg): 203000 ng/mL
- HALF ([5]; 15 mg/kg): 14.94 h
- KEL ([5]; 15 mg/kg): 0.0464 h⁻¹
- TMAX ([5]; 15 mg/kg): 3 h
- VZF ([5]; 15 mg/kg): 30.24 mL/kg
- slowing of tumor growth (UACC melanoma cells; 15 mg/kg, 3 times per week for 3-4 weeks, treatment initiated at 50 mm^3): effective at slowing tumor growth
- % Tumor Reduction vs. Vehicle at Day 21 (UACC melanoma cells; UACC Melanoma, M830 alone, IP, 3 times per week, treatment initiated at about 50 mm^3): 65%
- ka (hTEM8-AP): 607100 M⁻¹ s⁻¹
- kd (hTEM8-AP): 0.0009533 s⁻¹
- ka (mTEM8-Fc): 774900 M⁻¹ s⁻¹
- kd (mTEM8-Fc): 0.002901 s⁻¹
- TGD ([6]; Group 7: M830 15 mg/kg IP in combination with paclitaxel 30 mg/kg IV, maximum possible TGD 65.2 days (286%) for the 88-day study): maximum TGD
- regression responses ([6]; Group 7: M830 15 mg/kg IP in combination with paclitaxel 30 mg/kg IV, n=10): 90%
- CRs (complete regressions) [6, 7]: seven
- PRs (partial regressions) [6, 7]: two
- TFS (tumor-free survivors) at study end [6, 7]: three
- % Tumor Reduction vs. Vehicle at Day 21 ([6]; H460 Lung, M830 alone, IP): 62%
- % Tumor Reduction vs. combination partner at Day (#) ([6]; H460 Lung, combination partner Bevacizumab): 58.5% (32)
- % Tumor Reduction vs. Vehicle at Day 21 ([6]; H460 Lung, combination partner Bevacizumab, M830 IP): 94.5%
- regression (in cell of % Tumor Reduction vs. Vehicle at Day 21) [6, 8]: −61%
- % Tumor Reduction vs. combination partner at Day (#) [6, 8]: 94% (32)
- % Tumor Reduction vs. Vehicle at Day 21 ([6]; H460 Lung, combination partner Paclitaxel, M830 IP, treatment initiated at 60-80 mm^3): > 100%
- % TGD [6, 9]: 146%
- TGD [6, 9]: 33.2 days
- CRs (complete regressions) [6, 10]: 3
- PR (partial regressions) [6, 10]: 1
- TFS (tumor-free survivors) at study end [6, 10]: three
- regression responses [6, 10]: 40%
- rank of activity among regimens ([6]; M830 in combination with paclitaxel): most active treatment regimen tested
- combination compared with either agent alone [6, 11]: more effective than either agent alone
- efficacy against H460 cancer cells in the xenograft model [6, 11]: effective
